These results are taken from publication PMC10200060, “Inhibition of DAMP actions in the tumoral microenvironment using lactoferrin-glycyrrhizin conjugate for glioblastoma therapy” (Biomaterials Research, 2023).

In series [1] the target is T1, human recombinant HMGB1 protein (Homo sapiens, UniProt P09429).
T1 construct: purchased Abcam
T1 sequence (P09429 1-215): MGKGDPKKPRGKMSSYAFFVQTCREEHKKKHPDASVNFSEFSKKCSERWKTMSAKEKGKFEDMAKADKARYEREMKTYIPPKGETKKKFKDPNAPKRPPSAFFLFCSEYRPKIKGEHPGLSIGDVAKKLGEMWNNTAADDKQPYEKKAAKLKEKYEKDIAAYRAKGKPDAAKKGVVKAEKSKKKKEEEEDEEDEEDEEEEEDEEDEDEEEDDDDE
As to the kind of experiment: SPR binding affinity against HMGB1. The procedure: To confirm the binding affinity of Lf-GL to HMGB1, Surface Plasmon Resonance (SPR) was conducted at WoojungBSC (Korea). The Reichert SR7500DC system (Reichert technologies, NA, USA) and Scrubber2 software (Biologic software, FRA) were used, and a CMDH chip (Cat #: 13,206,066, Reichert technologies) was used for immobilization of the human recombinant HMGB1 protein (Abcam). HMGB1 protein was used as a ligand, and the analytes were HMGB1 antibody (Abcam), GL, Lf and Lf-GL conjugate. The immobilization buffer was S.A. (10 × 10^–3 M, pH 4.5), and the running buffer was PBS (pH 7.4). The flow rate of the analyte was 30 μL min^−1. The association and dissociation time were 3 min each, and measurements were conducted at room temperature. Results are expressed in response units (RU) over time.
Fig. S5. Binding affinity against HMGB1. Surface Plasmon Resonance (SPR) was conducted at WoojungBSC (Korea). The Reichert SR7500DC system (Reichert technologies, NA, USA) and Scrubber2 software(Biologic software, FRA) were used and the CMDH chip (Cat #: 13206066, Reichert technologies) was used for immobilization of the human recombinant HMGB1 protein (Abcam). HMGB1 protein was used as ligand and analytes were HMGB1 antibody (Abcam), GL, Lf and Lf-GL conjugate. Immobilization buffer was 10 mM S.A. (pH 4.5) and running buffer was 1× PBS. The flow rate of the analyte was 30 μL min^-1. The association and dissociation time were 3 min each and conducted at room temperature. Results are expressed in response units (RU) over time.
Background: Surface plasmon resonance follows binding to a sensor surface in real time, without labels.

Series [2] deals with U87MG spheroid. As to the kind of experiment: GBM spheroid growth inhibition. It is filed as cell-based, human. The conditions noted are these: GL equivalent 50 µM, day 6 (control 294%). The procedure:
Fig. S8. GBM spheroid growth inhibition of Lf-GL. To form U87MG spheroid, cells were seeded at density of 1X10^5 cells in concave mold (StemFIT 3D; MICROFIT, Korea). After spheroids were formed, they were transferred to 24-well plate coated with 2% agarose gel. The constructed spheroids were treated with conditioned medium at 2 days interval after a washing step with PBS. (a) Morphology of U87MG spheroid treated with Lf-GL of GL equivalent concentration of 50 µM on day 0, 2, 4 and 6, respectively. Scale bar: 200 µm (b) GBM spheroids time-related volume after treated with Lf-GL of GL equivalent concentration of 50 µM. Data were expressed as mean ± S.E.M (n=9). **P <0.01 versus Control.

Series [3] concerns HMGB1. As to the kind of experiment: HUVEC co-cultured with U87MG: HMGB1 ELISA. The class given is cell-based, human. The conditions noted are these: HUVEC/U87MG co-culture, 100 μM GL equivalent, 24 h (control 217.8 ± 5.9). The procedure: To evaluate the inhibitory effect of Lf-GL on neovascularization in the tumor microenvironment in vitro, U87MG cells were seeded in the Transwell® insert chambers that were 6.5 mm in diameter and had 0.4 μm pore sizes (seeding density: 2.5 × 10^4 cells per well, Corning). HUVECs were seeded in the Transwell basal chamber (seeding density: 5.0 × 10^4 cells per well). GL, Lf, or Lf-GL (100 × 10^–6 M of GL equivalent concentration) were added to the insert chamber, and cells were incubated for 24 h. CCK-8 assay and HMGB1 ELISA were conducted at the basal chamber.
(In general: ELISA stands for enzyme-linked immunosorbent assay.)

Series [4] in a line: GBM targeted-GL by HPLC in brain homogenate. The class given is in vivo, orthotopic GBM model mice. As for the experimental part: Orthotopic GBM mice model mice were used for quantification of GBM targeting efficacy. The brain tissue was homogenized in deionized water at a 33.3 w/v (%) using a FastPrep-24 5G (MP biomedical, South Korea). The GL were added to pooled brain homogenate to obtain seven-point calibration curves with a range of 10–1000 ng mL^−1. Then, homogenate (50 μL) was mixed with methanol (100 μL). […] Thereafter, supernatants (100 μL) were mixed with mobile phase solution (900 μL), then filtered with a 0.22 μm syringe filter. Samples were collected in a 2 mL HPLC vial (Screw top vial, Waters, USA) and analyzed by HPLC at 254 nm. […] Mice were sacrificed and brain tissues were collected 10 min after the GL and Lf-GL injection. The samples for quantification were also conducted using the same process as GL standard preparation.

Series [5] has as its system orthotopic GBM (U87MG) mice model. As to the kind of experiment: Survival in orthotopic GBM mouse model. It is filed as in vivo, Balb/c nude mice. The following applies: i.v. GL equivalent 50 mg kg^−1 (Lf 5 mg kg^−1). The procedure:
To establish the orthotopic GBM mice model, GBM cells (U87MG, inoculation density: 1.0 × 10^6 cells per 10 μL) were stereotactically injected into the right striatum of Balb/c nude mice. Then, mice were randomly divided into four groups (n = 5): control, GL, Lf, and Lf-GL treated group. […] After four weeks, mice were sacrificed, and organs were harvested and fixed with 4% paraformaldehyde for further analysis.

Series [6] relates to HMGB1. Briefly: Immunofluorescence staining of HMGB1 in GBM tissue. The class given is in vivo, Balb/c nude mice. The following applies: GBM mice, daily i.v. GL equivalent 50 mg kg^−1, 14 days (control 15.3 ± 1.7). An excerpt:
After two weeks, mice were sacrificed, and the brains were harvested and fixed with paraformaldehyde (4%). Then, tissue processing was automatically conducted using a Leica TP1020 semi-enclosed Benchtop Tissue Processor (Leica Biosystems, Wetzlar, Hesse, Germany), followed by embedding in paraffin blocks. Paraffin blocks were sliced into 5 μm thick slices using a Leica RM2145 Microtome (Leica Biosystems). Nissl staining was used to stain brain tissue slides with pre-warmed 0.1% Cresyl Violet Stain Solution (Abcam). TUNEL assays were conducted following the manufacturer’s instructions. For immunofluorescence staining; anti-HMGB1 antibody (Abcam), anti-Ki67 antibody (Abcam), anti-CD31 antibody (Abcam), and anti-VEGF antibody (Abcam) were used as primary antibodies, and goat anti-rabbit IgG-H&L Alexa Fluor 488 and goat anti-rabbit IgG H&L Alexa Fluor 647 were used as secondary antibodies, followed by DAPI mounting.

The conditions of series [7]: mouse, in vivo, iv.
Series [8] in a line: In vivo pharmacokinetics study. The following applies: mice, i.v.
[9] abbreviates: SPR, HMGB1 immobilized, PBS pH 7.4, room temperature.
[10] abbreviates: GL equivalent 50 mg kg^−1, plasma.

B1: Lf-GL: lactoferrin-glycyrrhizin conjugate with ligation ratio Lf:GL 1:10, used in further experiments (conjugate, UniProt P24627 20-708, looked up)
Lactotransferrin: APRKNVRWCTISQPEWFKCRRWQWRMKKLGAPSITCVRRAFALECIRAIAEKKADAVTLDGGMVFEAGRDPYKLRPVAAEIYGTKESPQTHYYAVAVVKKGSNFQLDQLQGRKSCHTGLGRSAGWIIPMGILRPYLSWTESLEPLQGAVAKFFSASCVPCIDRQAYPNLCQLCKGEGENQCACSSREPYFGYSGAFKCLQDGAGDVAFVKETTVFENLPEKADRDQYELLCLNNSRAPVDAFKECHLAQVPSHAVVARSVDGKEDLIWKLLSKAQEKFGKNKSRSFQLFGSPPGQRDLLFKDSALGFLRIPSKVDSALYLGSRYLTTLKNLRETAEEVKARYTRVVWCAVGPEEQKKCQQWSQQSGQNVTCATASTTDDCIVLVLKGEADALNLDGGYIYTAGKCGLVPVLAENRKSSKHSSLDCVLRPTEGYLAVAVVKKANEGLTWNSLKDKKSCHTAVDRTAGWNIPMGLIVNQTGSCAFDEFFSQSCAPGADPKSRLCALCAGDDQGLDKCVPNSKEKYYGYTGAFRCLAEDVGDVAFVKNDTVWENTNGESTADWAKNLNREDFRLLCLDGTRKPVTEAQSCHLAVAPNHAVVSRSDRAAHVKQVLLHQQALFGKNGKNCPDKFCLFKSETKNLLFNDNTECLAKLGGRPTYEEYLGTEYVTAIANLKKCSTSPLLEACAFLTR
modifications: glycyrrhizin conjugate
In the case of B1, the “KD, equilibrium dissociation constant (KD = Kd Ka^−1)” value in series [1] (SPR, HMGB1 immobilized) came to 23.1 ± 0.1 nM. For the same molecule, in series [1] (setting [9]), the “Ka, association rate constant” value is “(2.64±0.01)·10^4 M^-1s^-1” and the “Kd, dissociation rate constant” value is recorded as “(3.11±0.02)·10^-4 M^-1s^-1”. Besides, the “Affinity for HMGB1 higher than that of HMGB1 antibody” value in series [1] (ratio of KD values) was determined as 45 fold. The “Spheroid volume increase at day 6 compared to day 0” value in series [2] was determined as 156%. The “HMGB1 level in medium” value in series [3] was determined as 176.1 ± 4.9 ng/mL. Besides, the “Accumulated amount higher than GL without Lf conjugation” value in series [4] (brain/GBM accumulation) is listed as “twofold”. Further, the “GL concentration detected in brain homogenate” value in series [4] (orthotopic GBM mice, i.v. GL equivalent 50 mg kg^−1, 10 min after injection) came to 19.3 ± 1.6 µg/mL. In addition, the “Mice survived up to 28 days” value in series [5] was 87.5%. Further, in series [5] (28 days), the “Additional days of survival versus PBS control” value came out at 5 days. Further, in series [6], the “Mean fluorescence intensity (MFI) of HMGB1” value amounted to 1.7 ± 1.0. Further, the “Time after administration until cleared from / remaining in circulation” value in series [7] is listed as 720 min. Further, the “T1/2, elimination half-life” value in series [7] (50 mg/kg) is given as 5.3 ± 0.4 min. Moreover, in series [8] (GL equivalent 50 mg kg^−1), the “Increase of AUClast versus free GL” value is reported as “tenfold”. In series [8] (setting [10]), the Cmax was 270.98 ± 130.92 μg/㎖; the “MRT, mean retention time” value was 3.4 ± 0.8 min; the time to peak (Tmax) (commonly the time from dosing to the highest level) turned out to be 1 min.
